Assay results reported in patent US20050064507A1, “Determining kinase specificity” (priority 2003, published 2005).

What was measured:
[1] = target: T1, PKC-theta (Homo sapiens, UniProt Q04759); test: In vitro kinase assay: peptide phosphorylation by PKC-theta; type: biochemical; conditions: for PKC theta phosphorylation: normalized to best substrate
T1 construct: His-tag; made in house; host or cells: baculovirus-infected Sf9 cells
Excerpt: A second strategy for validation of the PSSM derived from the methods described herein is to identify sequences represented in the human proteome that have low percentiles derived from the PSSM, to synthesize peptides that have those sequences, and test the efficiency of phosphorylation of those peptides by the kinase of interest. […] The results are shown for individual peptides (FIG. 11, panel A) or for groups of peptides aggregated by percentile prediction (FIG. 11, panel B). As with the testing described above with prospectively chosen peptides, the percentile scores are highly predictive of phosphorylation by the relevant kinase.
An example of the purification procedure used for production of active kinase is as follows. A preparation of PKC-theta was prepared using a Gateway expression construct containing PKC-theta that was expressed in baculovirus, which were used to infect Sf9 cells. The cell pellet from a liter of baculovirus-infected Sf9 cells was resuspended in 20 volumes (60 ml) of extraction buffer (20 mM Na phosphate buffer pH 7.5, 500 mM NaCl, 5 mM pyrophosphate, 10% glycerol, 10 mM imidazole, 1 mM PMSF), sonicated twice for one minute (1 cm tip at 60% power and 50% duty cycle) and cell disruption was verified microscopically. The sample was adjusted to five mM MgCl2 and treated with one U benzonase/ml for an additional 20 minute on ice. The sample was clarified by centrifugation in a JA-20 rotor at 15K for 30 min at 4° C., filtered through a […] filter and applied at 0.5 ml/min to a one ml chelating sepharose column previously charged with nickel and equilibrated with extraction buffer. The column was washed with extraction buffer at one ml/min to baseline and eluted in a 20 ml gradient (20-500 mM imidazole in extraction buffer) into one ml fractions that were analyzed by SDS-PAGE. Fractions with the highest concentration of protein were pooled, were dialyzed twice against one liter of 20 mM Na PO4 pH 7.5, 50 mM NaCl buffer. The kinase pool was dialyzed twice against 20 mM HEPES pH 7.4, 100 mM NaCl, 2 mM EDTA, 5 mM DTT, 0.05% Triton-X-100. After dialysis, the sample was adjusted to 50% glycerol and quick-frozen in a dry ice/ethanol bath.
(§1) The conditions of the kinase assay and the amount of active kinase used varied with the kinase and with the accuracy needed. For a typical experiment, 5-20 ng of kinase was used per well and each peptide pool was assayed in duplicate wells. Note that the absolute amount of kinase used was not usually a critical parameter, because the desired information related to specificity of the kinase not its absolute activity, and robustness of the assay depends on comparisons of the same amount of kinase on different peptides. The combination of kinase concentration and assay duration was modified to assure that the stoichiometry of peptide phosphorylation never exceeded 5%. The choice of kinase buffer depended on the kinase being analyzed. For studies of PKC, 100 mM HEPES, 0.05% Triton-X100, 1 mM CaCl2, 20 mM MgCl2, 0.2 mg/ml phosphatidyl serine (Avanti Polar Lipids), PMA 100 ng/ml was typically used. The lipid stock was prepared by transferring 3 mg phosphatidyl serine into iced mixture of 450 μl water plus 50 μl of 10% Triton-X100, sonicating 10 times on ice for 1 sec each.
The kinase reaction mixture was assembled by sequential addition to a tube held on ice of: 5 μl peptide (100 μM for final concentration of 10 μM), 15 μl of kinase (typically 5 ng/well, in appropriate kinase buffer), 30 μl of ATP (1 uCi/well of ^32P-gamma ATP in a stock of 167 μM cold ATP in the kinase buffer; for final concentration for 100 μM ATP). The mixture was rapidly warmed to desired reaction temperature (30° C. for PKC) and incubated for the desired duration (usually 10 minutes). The kinase assay was terminated by transfer to 4° C. water batch, and rapid addition of an equal volume (50 μl) of stop solution [0.1M ATP+0.1M EDTA in water, pH 8]. […]

[2] = target: T2, PKC-alpha (Homo sapiens, UniProt P17252); test: In vitro kinase assay: peptide phosphorylation by PKC-alpha; type: biochemical; conditions: for PKC alpha phosphorylation: normalized to best substrate
T2 construct: purchased Calbiochem
Procedure: Catalytically active preparations of the kinases of interest were either purchased or prepared. Purchased and tested active kinase preparations including the following: PKC-alpha, PKC-delta, PKC-epsilon, PKC-zeta, PKC-mu, PKA, PKG from Calbiochem, ROK alpha/ROCK-II, active from Upstate Biotechnology, and AKT1 from Panvera.
as §1
The kinase reaction mixture was assembled by sequential addition to a tube held on ice of: 5 μl peptide (100 μM for final concentration of 10 μM), 15 μl of kinase (typically 5 ng/well, in appropriate kinase buffer), 30 μl of ATP (1 uCi/well of ^32P-gamma ATP in a stock of 167 μM cold ATP in the kinase buffer; for final concentration for 100 μM ATP). The mixture was rapidly warmed to desired reaction temperature (30° C. for PKC) and incubated for the desired duration (usually 10 minutes). The kinase assay was terminated by transfer to 4° C. water batch, and rapid addition of an equal volume (50 μl) of stop solution [0.1M ATP+0.1M EDTA in water, pH 8].
The peptides were then captured from the reaction mixture by transfer to a Reacti-Bind Streptavidin High Binding Capacity Coated Plates (HBC) (Pierce Biotechnology) as follows. The HBC plates were pre-rinsed three times with PBS/Tween PBS/Tween20 0.05% (PBS/Tween). Part of all of the reaction mixture was then transferred wells of a HBC plate pre-filled with 90 μl of phosphate-buffered saline (PBS); typically each aliquots of each phosphorylation reaction were transferred to duplicate HBC plates to assure accuracy by additional replication
For kinase assays done at the standard peptide concentration of 10 μM, the peptide concentration in the reaction mixture becomes 5 μM after addition of the stop solution; consequently 10 μl of the reaction (50 pMoles of peptide) was transferred to the HBC plate. More generally, the amount of reaction mixture transferred was estimated to be about 50 pMoles of peptide. […] The HBC plates were incubated for 0.5 to 1.5 hr at room temperature for complete binding of biotinylated peptides to plate-bound streptavidin. The HBC plates were then washed extensively with PBS/Tween. Five washes were done routinely and additional wash steps were added if the wash solution removed from the plate had measurable radioactivity as detected using a Geiger counter. This step is essential to obtaining a good the signal to noise ratio because the fraction of radioactivity incorporated in the peptides was a tiny fraction of the total in the reaction mixture. The wells were air-dried. A volume of 40-50 μl of microScint-20 (Packard Instruments) was added to each well. The plates were covered with stick-on film sheet. Radioactive emissions were measured in a TopCount NXT Microplate Scintillation and Luminescence Counter (Packard Instruments). Typically samples were counted for 5 minutes (or more) to improve the signal to noise ratio when counts were low. […]

T1 sequence (Q04759 whole entry): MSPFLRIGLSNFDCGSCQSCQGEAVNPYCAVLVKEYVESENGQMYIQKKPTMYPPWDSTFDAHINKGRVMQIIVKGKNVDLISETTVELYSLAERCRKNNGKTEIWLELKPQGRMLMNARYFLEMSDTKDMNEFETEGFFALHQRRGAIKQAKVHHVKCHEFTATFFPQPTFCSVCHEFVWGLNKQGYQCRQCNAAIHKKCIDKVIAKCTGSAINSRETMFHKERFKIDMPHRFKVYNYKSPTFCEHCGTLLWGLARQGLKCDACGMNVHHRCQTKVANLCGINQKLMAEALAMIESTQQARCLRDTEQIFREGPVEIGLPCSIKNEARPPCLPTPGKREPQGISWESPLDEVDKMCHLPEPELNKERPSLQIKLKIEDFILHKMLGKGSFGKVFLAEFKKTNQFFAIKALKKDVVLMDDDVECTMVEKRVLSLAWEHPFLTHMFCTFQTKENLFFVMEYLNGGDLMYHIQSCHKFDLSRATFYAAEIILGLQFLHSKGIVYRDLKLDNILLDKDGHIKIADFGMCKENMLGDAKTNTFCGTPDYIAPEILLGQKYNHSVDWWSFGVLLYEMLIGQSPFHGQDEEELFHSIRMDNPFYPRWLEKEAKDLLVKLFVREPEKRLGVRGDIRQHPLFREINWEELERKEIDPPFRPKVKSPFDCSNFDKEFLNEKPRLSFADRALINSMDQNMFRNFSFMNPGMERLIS

Row | Substance | phosphorylation by PKC theta ([1]; peptide concentration 1 uM) | phosphorylation by PKC theta ([1]; peptide concentration 10 uM) | phosphorylation by PKC alpha ([2]; peptide concentration 1 uM) | phosphorylation by PKC alpha ([2]; peptide concentration 10 uM) | PKC theta phosphorylation [1] [%] | PKC alpha phosphorylation [2] [%] | Peptide phosphorylation by PKC-theta ([1]; Table 8)
1 | 132 (GFLNEPLSSKSQRRKSLKLK) [compound 132] | 34 | 40 | 24 | 30 | – | – | –
2 | 166 (MAQIERGEARIQRRISIKKA) [compound 166] | 13 | 13 | 22 | 7 | – | – | –
3 | 94 (KLAVGRHSFSRRSGV) [compound 94] | – | – | – | – | 86 | 34 | –
4 | 111 (KKKRFSFKKSFKLSGFSFKK) [compound 111] | – | – | – | – | 18 | 11 | –
5 | 134 (RSRSRSRSKSKDKRKSRKRS) [compound 134] | 36 | 16 | 54 | 39 | – | – | –
6 | 167 (GLPAPGEDKSIYRRGSRRWR) [compound 167] | 12 | 14 | 27 | 7 | – | – | –
7 | 123 (KKRFSFKKSFKLSGFSFKKN) [compound 123] | 47 | 32 | 58 | 73 | – | – | –
8 | 143 (VRYTPYTISPYNRKGSFRKQ) [compound 143] | 25 | 27 | 38 | 19 | – | – | –
9 | 131 (WKGKRRSKARKKRK) [compound 131] | 53 | 35 | 49 | 22 | – | – | –
10 | 76 (HVRRRRGTFKRSKLRARD) [compound 76] | – | – | – | – | 100 | 62 | 99
11 | 142 (ERHVAQKKSRLRRRASQLKI) [compound 142] | 28 | 37 | 16 | 21 | – | – | –
12 | 79 (NRKKKRTSFKRKA) [compound 79] | – | – | – | – | 33 | 50 | –
13 | 129 (VQRHRSMRKTFARYLSFRRD) [compound 129] | 48 | 25 | 58 | 37 | – | – | –
14 | 78 (KFARKSTRRSIRLPE) [compound 78] | – | – | – | – | 47 | 69 | –
15 | 127 (SQVQKQRSAGSFKRNSIKKI) [compound 127] | 45 | 58 | 40 | 39 | – | – | –
16 | 92 (DGQKRKKSLRKKLD) [compound 92] | – | – | – | – | 47 | 36 | –
17 | 157 (PSPSNETPKKKKKRFSFKKS) [compound 157] | 20 | 23 | 10 | 11 | – | – | –
18 | 83 (RKIPKRPGSVHRTPSRQ) [compound 83] | – | – | – | – | 92 | 41 | –
19 | 154 (KKFFTQGWAGWRKKTSFRKP) [compound 154] | 34 | 21 | 16 | 12 | – | – | –
20 | 100 (WKGKRRSKARKKRK) [compound 100] | – | – | – | – | 56 | 14 | –
21 | 140 (TELEGGFSRQRKRKLSFRRR) [compound 140] | 25 | 35 | 12 | 15 | – | – | –
22 | 119 (KKRFSFKKSFKLSGFSFKKN) [compound 119] | 69 | 28 | 94 | 98 | – | – | –
23 | 117 (NRKKKRTSFKRKA) [compound 117] | 84 | 78 | 40 | 39 | – | – | –
